The target in series [1] is T1, heavy chain of B-domain deleted human Factor VIII (A1-A2 domains) (human, UniProt P00451 20-1667, oligosaccharide observed linked to Asn 239).
T1 construct: Residues 17-43, 334-376 and 714-754 were not modeled; also called A1-a1-A2-a2
T1 sequence (heavy): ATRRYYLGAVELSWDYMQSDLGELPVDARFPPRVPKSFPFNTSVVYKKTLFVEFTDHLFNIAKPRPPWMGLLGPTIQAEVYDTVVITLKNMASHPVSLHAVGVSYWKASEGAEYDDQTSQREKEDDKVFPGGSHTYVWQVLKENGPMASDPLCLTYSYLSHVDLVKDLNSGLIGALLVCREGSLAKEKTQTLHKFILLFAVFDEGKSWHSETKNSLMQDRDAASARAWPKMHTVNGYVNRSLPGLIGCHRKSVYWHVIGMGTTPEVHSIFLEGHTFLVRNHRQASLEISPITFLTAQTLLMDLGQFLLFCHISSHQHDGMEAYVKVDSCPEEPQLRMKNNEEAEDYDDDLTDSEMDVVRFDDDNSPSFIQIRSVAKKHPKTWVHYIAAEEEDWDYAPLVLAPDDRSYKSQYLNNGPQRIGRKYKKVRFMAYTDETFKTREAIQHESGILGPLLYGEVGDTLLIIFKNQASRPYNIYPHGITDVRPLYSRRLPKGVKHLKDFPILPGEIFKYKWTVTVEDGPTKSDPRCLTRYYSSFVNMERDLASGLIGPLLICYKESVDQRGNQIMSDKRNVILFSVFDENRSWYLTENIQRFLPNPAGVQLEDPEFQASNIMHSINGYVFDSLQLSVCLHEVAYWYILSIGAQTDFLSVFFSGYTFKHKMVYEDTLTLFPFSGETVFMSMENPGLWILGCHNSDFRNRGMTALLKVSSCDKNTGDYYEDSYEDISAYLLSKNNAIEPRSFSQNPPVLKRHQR
The experiment in a line: X-ray crystal structure. From the text:
X-ray diffraction data of Factor VIII crystals were collected at the NE-CAT synchrotron beamline ID-24 of the Advanced Photon Source (APS) at Argonne National Laboratory. All xray data were processed using program HKL2000 (Otwinowski, Z. & Minor, W. (1997) in Methods Enzymol (Academic Press, New York), Vol. 276, pp. 307-326) (Table 1).
For structural determination using the molecular replacement method, a homology structure model of Factor VIII was constructed from the known primary sequence of Factor VIII (McCoy, A. J. (2007) Acta Crystallogr D Biol Crystallogr 63, 32-41). Using the template structures of Factor Vai (PDBID: […]) (Sandberg, H., Almstedt, A., Brandt, J., Castro, V. M., Gray, E., Holmquist, L., Lewin, M., Oswaldsson, U., Mikaelsson, M., Jankowski, M. A., Bond, M. & Scoble, H. A. (2001) Semin Hematol 38, 4-12) and ceruloplasmin (PDBID: 1KCW) (Adams, T. E., Hockin, M. F., Mann, K. G. & Everse, S. J. (2004) Proc Natl Acad Sci U SA 101, 8918-23), the structure of the A1 and A2 domains of Factor VIII were initially determined with AMoRe (Murshudov, G. N., Vagin, A. A. & Dodson, E. J. (1997) Acta Crystallogr D Biol Crystallogr 53, 240-55) using the structure of the A1 and A2 domains of the homology model. This yielded clear rotation function and translation function solutions. […]

Series [2] concerns the molecule itself. Briefly: X-ray crystal structure, crystal contact.

B1: light chain of B-domain deleted human Factor VIII (A3-C1-C2 domains) (other)
light: EITRTTLQSDQEEIDYDDTISVEMKKEDFDIYDEDENQSPRSFQKKTRHYFIAAVERLWDYGMSSSPHVLRNRAQSGSVPQFKKVVFQEFTDGSFTQPLYRGELNEHLGLLGPYIRAEVEDNIMVTFRNQASRPYSFYSSLISYEEDQRQGAEPRKNFVKPNETKTYFWKVQHHMAPTKDEFDCKAWAYFSDVDLEKDVHSGLIGPLLVCHTNTLNPAHGRQVTVQEFALFLTIFDETKSWYFTENMERNCRAPCNIQMEDPTFKENYRFHAINGYIMDTLPGLVMAQDQRIRWYLLSMGSNENIHSIHFSGHVFTVRKKEEYKMALYNLYPGVFETVEMLPSKAGIWRVECLIGEHLHAGMSTLFLVYSNKCQTPLGMASGHIRDFQITASGQYGQWAPKLARLHYSGSINAWSTKEPFSWIKVDLLAPMIIHGIKTQGARQKFSSLYISQFIIMYSLDGKKWQTYRGNSTGTLMVFFGNVDSSGIKHNIFNPPIIARYIRLHPTHYSIRSTLRMELMGCDLNSCSMPLGMESKAISDAQITASSYFTNMFATWSPSKARLHLQGRSNAWRPQVNNPKEWLQVDFQKTMKVTGVTTQGVKSLLTSMYVKEFLISSSQDGHQWTLFFQNGKVKVFQGNQDSFTPVVNSLDPPLLTRYLRIHPQSWVHQIALRMEVLGCEAQDLY
modifications: oligosaccharides observed linked to Asn 1810 and Asn 2118
notes: Residues 1649-1690 and 1714-1724 were not modeled; also called a3-A3-C1-C2
Consider B1, for which the binding result in series [1] was “binds”.

B2: B-domain deleted human Factor VIII (other)
heavy: ATRRYYLGAVELSWDYMQSDLGELPVDARFPPRVPKSFPFNTSVVYKKTLFVEFTDHLFNIAKPRPPWMGLLGPTIQAEVYDTVVITLKNMASHPVSLHAVGVSYWKASEGAEYDDQTSQREKEDDKVFPGGSHTYVWQVLKENGPMASDPLCLTYSYLSHVDLVKDLNSGLIGALLVCREGSLAKEKTQTLHKFILLFAVFDEGKSWHSETKNSLMQDRDAASARAWPKMHTVNGYVNRSLPGLIGCHRKSVYWHVIGMGTTPEVHSIFLEGHTFLVRNHRQASLEISPITFLTAQTLLMDLGQFLLFCHISSHQHDGMEAYVKVDSCPEEPQLRMKNNEEAEDYDDDLTDSEMDVVRFDDDNSPSFIQIRSVAKKHPKTWVHYIAAEEEDWDYAPLVLAPDDRSYKSQYLNNGPQRIGRKYKKVRFMAYTDETFKTREAIQHESGILGPLLYGEVGDTLLIIFKNQASRPYNIYPHGITDVRPLYSRRLPKGVKHLKDFPILPGEIFKYKWTVTVEDGPTKSDPRCLTRYYSSFVNMERDLASGLIGPLLICYKESVDQRGNQIMSDKRNVILFSVFDENRSWYLTENIQRFLPNPAGVQLEDPEFQASNIMHSINGYVFDSLQLSVCLHEVAYWYILSIGAQTDFLSVFFSGYTFKHKMVYEDTLTLFPFSGETVFMSMENPGLWILGCHNSDFRNRGMTALLKVSSCDKNTGDYYEDSYEDISAYLLSKNNAIEPRSFSQNPPVLKRHQR
light: EITRTTLQSDQEEIDYDDTISVEMKKEDFDIYDEDENQSPRSFQKKTRHYFIAAVERLWDYGMSSSPHVLRNRAQSGSVPQFKKVVFQEFTDGSFTQPLYRGELNEHLGLLGPYIRAEVEDNIMVTFRNQASRPYSFYSSLISYEEDQRQGAEPRKNFVKPNETKTYFWKVQHHMAPTKDEFDCKAWAYFSDVDLEKDVHSGLIGPLLVCHTNTLNPAHGRQVTVQEFALFLTIFDETKSWYFTENMERNCRAPCNIQMEDPTFKENYRFHAINGYIMDTLPGLVMAQDQRIRWYLLSMGSNENIHSIHFSGHVFTVRKKEEYKMALYNLYPGVFETVEMLPSKAGIWRVECLIGEHLHAGMSTLFLVYSNKCQTPLGMASGHIRDFQITASGQYGQWAPKLARLHYSGSINAWSTKEPFSWIKVDLLAPMIIHGIKTQGARQKFSSLYISQFIIMYSLDGKKWQTYRGNSTGTLMVFFGNVDSSGIKHNIFNPPIIARYIRLHPTHYSIRSTLRMELMGCDLNSCSMPLGMESKAISDAQITASSYFTNMFATWSPSKARLHLQGRSNAWRPQVNNPKEWLQVDFQKTMKVTGVTTQGVKSLLTSMYVKEFLISSSQDGHQWTLFFQNGKVKVFQGNQDSFTPVVNSLDPPLLTRYLRIHPQSWVHQIALRMEVLGCEAQDLY
modifications: oligosaccharides observed linked to Asn 1810 and Asn 2118; oligosaccharide observed linked to Asn 239
notes: Expressed in CHO cells and crystallised; heterodimer of heavy and light chain with 2 Cu2+, 1 Ca2+ and three carbohydrate moieties; also called B-domain deleted recombinant Factor VIII (Wyeth); B domain-deleted FVIII
Take B2: the binding result in series [2] was “binds”.

The values above are taken from US20090271163A1 (published 2009).
